Measurements as given in article doi:10.1101/2022.01.11.475891, “Structural insights as to how iron-loaded siderophores are imported into Mycobacterium tuberculosis by IrtAB” (bioRxiv, 2022).

Target: T1, IrtA, full length (subunit of full-length Mtb IrtAB) (M. tuberculosis H37Rv, UniProt P9WQJ9 1-859)
T1 construct: also called Rv1348
T1 sequence: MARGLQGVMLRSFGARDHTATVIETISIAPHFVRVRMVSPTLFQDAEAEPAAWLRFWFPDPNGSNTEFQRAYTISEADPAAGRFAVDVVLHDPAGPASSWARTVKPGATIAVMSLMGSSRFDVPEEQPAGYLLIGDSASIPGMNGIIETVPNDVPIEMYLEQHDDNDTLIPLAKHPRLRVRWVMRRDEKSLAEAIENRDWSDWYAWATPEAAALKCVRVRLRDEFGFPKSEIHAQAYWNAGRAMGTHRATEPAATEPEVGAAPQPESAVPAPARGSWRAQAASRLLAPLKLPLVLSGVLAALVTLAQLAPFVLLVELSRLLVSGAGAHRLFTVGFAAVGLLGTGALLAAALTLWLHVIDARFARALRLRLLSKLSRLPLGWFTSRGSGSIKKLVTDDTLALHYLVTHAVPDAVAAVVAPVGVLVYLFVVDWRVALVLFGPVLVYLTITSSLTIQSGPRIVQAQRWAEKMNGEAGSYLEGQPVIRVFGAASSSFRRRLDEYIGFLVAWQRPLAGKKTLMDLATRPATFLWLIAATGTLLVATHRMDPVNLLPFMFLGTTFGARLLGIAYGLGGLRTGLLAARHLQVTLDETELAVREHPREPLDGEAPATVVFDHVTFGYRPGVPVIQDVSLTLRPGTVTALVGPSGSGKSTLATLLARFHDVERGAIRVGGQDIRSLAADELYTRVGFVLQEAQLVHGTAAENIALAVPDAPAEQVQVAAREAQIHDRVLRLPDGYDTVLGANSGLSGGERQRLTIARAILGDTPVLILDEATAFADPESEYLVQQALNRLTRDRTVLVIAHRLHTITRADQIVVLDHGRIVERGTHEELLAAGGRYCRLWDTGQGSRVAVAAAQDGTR
Experiment: cryo-EM structure; full-length IrtAB in digitonin, no nucleotide added; 20 mM MES, 150 mM NaCl, pH 6.5; inward-facing
Conditions: both partners purified

B1: IrtB with a C-terminal 10x His tag (subunit of Mtb IrtAB) (natural protein)
chain: MIRTWIALVPNDHRARLIGFALLAFCSVVARAVGTVLLVPLMAALFGEAPQRAWLWLGWLSAATVAGWVLDAVTARIGIELGFAVLNHTQHDVADRLPVVRLDWFTAENTATARQAIAATGPELVGLVVNLVTPLTSAILLPAVIALALLPISWQLGVAALAGVPLLLGALWASAAFARRADTAADKANTALTERIIEFARTQQALRAARRVEPARSLVGNALASQHTATMRLLGMQIPGQLLFSIASQLALIVLAGTTAALTITGTLTVPEAIALIVVMVRYLEPFTAVSELAPALESTRATLGRIGSVLTAPVMVAGSGTWRDGAVVPRIEFDDVAFGYDGGSGPVLDGVSFCLQPGTTTAIVGPSGCGKSTILALIAGLHQPTRGRVLIDGTDVATLDARAQQAVCSVVFQHPYLFHGTIRDNVFAADPGASDDQFAQAVRLARVDELIARLPDGANTIVGEAGSALSGGERQRVSIARALLKAAPVLLVDEATSALDAENEAAVVDALAADPRSRTRVIVAHRLASIRHADRVLFVDDGRVVEDGSISELLTAGGRFSQFWRQQHEAAEWQILAE
notes: IrtB (Rv1349) of Mycobacterium tuberculosis H37Rv, TMD and NBD; The same IrtB chain stands in full-length IrtAB and in IrtAB(ΔSID); also called Rv1349
  binding result: binds
